Measurements taken from patent US20170290886.

System: Recombinant GST-tagged MeCP2 protein (Prospec)

Substance: His-tagged PIAS1 protein
- MeCP2 SUMOylation (in vitro SUMOylation assay with purified proteins): MeCP2 SUMOylation occurred when E1, E2, PIAS1 (the protein inhibitor of activated STAT1) and MeCP2 proteins were added
